Legend:
[1] = test system: rice HPPD (OsHPPD); assay: Color reaction of recombinant E. coli expressing wild-type or mutant rice HPPD, cultured in 96-well plate in medium containing an HPPD-inhibiting herbicide and tyrosine; type: cell-based, Oryza sativa; settings: compound 101
Method in brief: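 E. coli clones expressing wild-type or single-site-mutant rice HPPD (residues 51 onward, NNK saturation mutagenesis, pET-44a) grown 24 h at 28 °C in 2×YT with 1 g/L L-Tyr, 0.1 mM IPTG, 0.01 mM MnCl2 and herbicide at 1–20 μM final (tembotrione 1.7 μM, mesotrione 10 μM). Brown homogentisate colour scored semi-quantitatively versus wild type.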

[2] = test system: Huaidao No. 5 rice seedlings; assay: Gene-edited rice seedlings (base editing / homologous replacement of HPPD gene) on medium containing tembotrione; type: in vivo; settings: medium containing 0.4 μM tembotrione
Method: The calli of Huaidao No. 5 (at least 3000 callis) were infected according to the aforesaid method for infecting rice callis with Agrobacterium. After being infected with Agrobacterium, the infected calli were transferred to a 50 mg/L hyg screening medium for screening culture. After three rounds (15 days×3) of screening, the blond calli with good growth state were picked out to differentiate in a differentiation medium, and 0.2 μM tembotrione was added during the differentiation process for screening. After for 3-4 weeks, about 1,500 seedlings with around 1 cm were obtained. As to the about 1,500 differentiated seedlings, the vast majority of which had been bleached, and only 4 seedlings remained normal green. The 4 seedlings were transplanted to a rooting medium containing 0.4 μM tembotrione and cultivated for 2 weeks, wherein two seedlings had been bleached, while the other two seedlings remained green (FIG. 14A). A small number of leaves were used to extract genomic DNA by CTAB method. PCR was carried out by using the primers oshppd54F: TTCCACCACGTCGAGCTC and Oshppd356R: […]. The amplified product was detected by 1% agarose electrophoresis and sequenced by Sanger sequencing method. […]

B1: H141R/G342D/D370N: three-site mutant rice HPPD (OsHPPD3M) (protein, listed as Oryza sativa)
chain: MPPTPTPTATTGAVSAAAAAGENAGFRLVGHRRFVRANPRSDRFQALAFHHVELWCADAASAAGRFAFALGAPLAARSDLSTGNSAHASLLLRSASVAFLFTAPYGGDHGVGADAATTASIPSFSPGAARRFAADHGLAVRAVALRVADAADAFRASVAAGARPAFQPADLGGGFGLAEVELYGDVVLRFVSHPDGADAPFLPGFEGVSNPGAVDYGLRRFDHVVGNVPELAPVAAYISGFTGFHEFAEFTAEDVGTAESGLNSVVLANNAETVLLPLNEPVHGTKRRSQIQTYLDHHGGPGVQHIALASDDVLGTLREMRARSAMGGFEFLAPPPPNYYDDVRRRAGDVLSEEQINECQELGVLVDRDNQGVLLQIFTKPVGDRPTFFLEMIQRIGCMEKDESGQEYQKGGCGGFGKGNFSELFKSIEEYEKSLEAKQAPTVQGS
modifications: The amino acid sequence of Wild-Type rice HPPD protein (OsHPPD _WT)
- concentration of 101 required to have no significant color reaction [1]: 120 µM
- state of successfully edited seedlings [2]: remain green
